From paper PMC10824102 (2024) come the findings set out here.

The target of assay [1] is T1, full-length 6x-His-tagged human G3BP1 (human, UniProt Q13283 1-466). The assay is described as follows: SPR.
The target in assay [2] is T1, full-length 6x-His-tagged human G3BP1. Briefly: FRET; competition with FAM-labeled USP10 FGDF peptide probe.

T1 sequence (Q13283 whole entry): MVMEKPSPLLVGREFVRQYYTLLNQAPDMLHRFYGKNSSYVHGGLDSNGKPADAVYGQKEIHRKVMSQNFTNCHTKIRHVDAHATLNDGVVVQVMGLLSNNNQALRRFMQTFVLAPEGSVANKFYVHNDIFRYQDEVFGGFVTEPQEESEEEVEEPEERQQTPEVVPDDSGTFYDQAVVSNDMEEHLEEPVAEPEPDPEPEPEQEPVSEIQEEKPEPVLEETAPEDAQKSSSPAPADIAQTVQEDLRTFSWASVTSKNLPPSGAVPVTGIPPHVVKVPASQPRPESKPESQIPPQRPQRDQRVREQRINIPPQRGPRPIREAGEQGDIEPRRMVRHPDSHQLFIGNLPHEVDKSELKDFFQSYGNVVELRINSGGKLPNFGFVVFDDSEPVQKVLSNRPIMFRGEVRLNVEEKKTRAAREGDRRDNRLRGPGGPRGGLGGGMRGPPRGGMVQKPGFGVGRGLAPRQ

LTFGDFDEHEVDALASGITFGDFDD [nsP3 25-mer peptide] showed a Kd in assay [1] of 0.2 µM. Also, the IC50 in assay [2] was determined as 3.1 µM.
